From article PMC8423358 (Immunity, 2021)
Substitutions are numbered along the chain they refer to. In names and notes the source's numbering stands.

Target: DPP9, short isoform (DPP9S), co-expressed with CARD8 for cryo-EM (UniProt Q86TI2-1 1-863)
Experiment: cryo-EM structure

Chain of DPP9, short isoform (DPP9S), co-expressed with CARD8 for cryo-EM (Q86TI2 whole entry, canonical isoform): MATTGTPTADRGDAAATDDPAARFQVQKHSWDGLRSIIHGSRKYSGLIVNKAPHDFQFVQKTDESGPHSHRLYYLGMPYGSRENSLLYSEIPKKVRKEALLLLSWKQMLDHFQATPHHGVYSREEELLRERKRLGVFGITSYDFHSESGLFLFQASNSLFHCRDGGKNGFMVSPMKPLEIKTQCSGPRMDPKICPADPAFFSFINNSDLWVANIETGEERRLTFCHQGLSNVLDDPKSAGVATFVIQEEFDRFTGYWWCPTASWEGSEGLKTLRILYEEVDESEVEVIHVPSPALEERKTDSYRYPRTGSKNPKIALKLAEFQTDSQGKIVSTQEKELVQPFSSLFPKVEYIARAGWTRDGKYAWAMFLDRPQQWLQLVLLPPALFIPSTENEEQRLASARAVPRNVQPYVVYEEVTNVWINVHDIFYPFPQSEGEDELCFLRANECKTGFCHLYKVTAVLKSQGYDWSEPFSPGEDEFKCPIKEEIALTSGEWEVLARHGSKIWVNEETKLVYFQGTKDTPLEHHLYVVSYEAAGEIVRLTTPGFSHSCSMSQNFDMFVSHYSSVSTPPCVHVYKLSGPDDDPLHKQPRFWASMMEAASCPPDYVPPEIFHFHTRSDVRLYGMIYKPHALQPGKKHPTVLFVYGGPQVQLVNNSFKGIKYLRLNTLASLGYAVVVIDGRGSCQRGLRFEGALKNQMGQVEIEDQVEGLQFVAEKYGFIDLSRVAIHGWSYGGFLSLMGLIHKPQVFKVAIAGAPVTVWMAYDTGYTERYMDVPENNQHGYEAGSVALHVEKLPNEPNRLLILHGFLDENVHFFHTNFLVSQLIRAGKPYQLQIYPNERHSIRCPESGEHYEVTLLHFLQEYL

B1: Full-length CARD8 (T60 isoform), molecule A of the CARD8-DPP9 ternary complex (natural protein, human, UniProt Q9Y2G2-5 1-537, looked up)
chain: MEKKECPEKSSSSEEELPRRDSGSSRNIDASKLIRLQGSRKLLVDNSIRELQYTKTGIFFQAEACVTNDTVYRELPCVSETLCDISHFFQEDDETEAEPLLFRAVPECQLSGGDIPSVSEEQESSEGQDSGDICSEENQIVSSYASKVCFEIEEDYKNRQFLGPEGNVDVELIDKSTNRYSVWFPTAGWYLWSATGLGFLVRDEVTVTIAFGSWSQHLALDLQHHEQWLVGGPLFDVTAEPEEAVAEIHLPHFISLQAGEVDVSWFLVAHFKNEGMVLEHPARVEPFYAVLESPSFSLMGILLRIASGTRLSIPITSNTLIYYHPHPEDIKFHLYLVPSDALLTKAIDDEEDRFHGVRLQTSPPMEPLNFGSSYIVSNSANLKVMPKELKLSYRSPGEIQHFSKFYAGQMKEPIQLEITEKRHGTLVWDTEVKPVDLQLVAASAPPPFSGAAFVKENHRQLQARMGDLKGVLDDLQDNEVLTENEKELVEQEKTRQSKNEALLSMVEKKGDLALDVLFRSISERDPYLVSYLRQQNL
- binding result: binds

B2: CARD8-S297A (autoproteolytic-deficient), full length, for cryo-EM (natural protein, human, UniProt Q9Y2G2-5 1-537, looked up)
chain: B1 chain with S297A
- binding result: binds
